Results from US8492329B2, “Bioactive peptides and methods of using same” (Compugen Ltd., priority 2007, dated 2013).
No end group written: not given here.

Tests used:
LGR8 (RXFP2) [1] = molecular target: T1, LGR8 (RXFP2) (Homo sapiens, UniProt Q8WXD0); experiment: pCRE-β-gal reporter assay in HEK-293T cells expressing LGR8; assay type: cell-based; set-up: expressed in transfected cells; settings: LGR8/pCRE-β-gal HEK-293T; for CRE activation pattern: 0.01 nM-1 μM, FIG. 6A-B
Method: In order to further test the activity of P59C13V (P59) (SEQ ID NO: 6), P59S-Amide (P59S) (SEQ ID NO: 1), P59C13V-Amide (P59 Amide) (SEQ ID NO: 5) and P74C13V (P74) (SEQ ID NO: 10), the following assay was performed. The assay was done to assess the ability of P59C13V (P59) (SEQ ID NO: 6), P59S-Amide (P59S) (SEQ ID NO: 1), P59C13V-Amide (P59Amide) (SEQ ID NO: 5) and P74C13V (P74) (SEQ ID NO: 10) peptides to replace H2 Relaxin or INSL3 activity in stable HEK-293T cell lines expressing the LGR7 (RXFP1) or the LGR8 (RXFP2) receptors, respectively, by assessment of the ability of these peptides to increase cAMP activity in cell lines expressing LGR7 (RXFP1) or LGR8 (RXFP2) respectively, together with pCRE-β-gal. The pCRE-β-gal assay is a standard and well established assay at the Howard Florey Institute (Melbourne, Australia) (Halls M L, Bathgate R A, Summers R J.—Comparison of signaling pathways activated by the relaxin family peptide receptors, RXFP1 and RXFP2, using reporter genes. J Pharmacol Exp Ther. 2007 January; 320(1):281-90.)
The ability of P59C13V (P59) (SEQ ID NO: 6), P59S-Amide (P59S) (SEQ ID NO: 1), P59C13V-Amide (P59Amide) (SEQ ID NO: 5) and P74C13V (P74) (SEQ ID NO: 10) to influence cAMP activity in HEK-293T LGR7/pCRE-β-gal stable or LGR8/pCRE-β-gal transfected cells was tested in parallel to H2 relaxin and INSL3 respectively, according to the protocol described in Halls M L, et al., J Pharmacol Exp Ther. 2007 January; 320(1):281-90.
The experiment was repeated at least three times. The following concentrations of each peptide were tested: 0.01 nM, 0.1 nM, 1 nM, 10 nM, 100 nM, 1 μM.
The results are presented as a percentage of INSL3 activity in LGR8/pCRE-β-gal transfected HEK-293T cells as a function of the concentration (Represented in Log [M]).

LGR8 (RXFP2) [2] = molecular target: T1, LGR8 (RXFP2); experiment: ACEA RT-CES cell impedance, LGR8 transfected CHO-K1 cells; assay type: cell-based; set-up: expressed in transfected cells; host or cells: CHO-K1 (transient); settings: P74C13V 10 uM, P59C13V 10 uM, H2 Relaxin 1 uM, FIG. 14
Text: ACEA RT-CES screen is a noninvasive and label-free assay for GPCRs that can be used with both engineered and nonengineered cell lines. The assay is based on using cell-electrode impedance to measure minute changes in cellular morphology as a result of ligand-dependent GPCR activation and is described in Naichen Yu, et al., Anal. Chem., 78 (1), 35-43, 2006. 10.1021/ac051695v S0003-2700(05)01695-1. The Rho family of small GTPases, which include Rho, Rac, and CDC42, are well-characterized effectors of oncogenes, growth factor and adhesion-mediated signaling pathways and are not classically thought of as being key effectors for GPCRs. Rho family GTPases participate in a number of cellular processes, the main one being regulation and maintenance of specific structures within the actin cytoskeleton framework. […] The current view of the actin cytoskeleton is that of a dynamic and plastic system that is a reflection and manifestation of the intracellular signaling and not simply a static structure designed to maintain cellular architecture. Since GPCRs couple to the actin cytoskeletal network and induce very defined morphological changes, it is possible to harness this information as a functional and biologically relevant readout for GPCRs.
ACEA biosciences; has designed electronic cell sensor arrays embedded in the bottom of the well of microtiter plates that are capable of measuring minute changes in cell morphology. The electronic sensors measure changes in cell-substrate impedance as a result of the disruption of the ionic environment due to the presence of cell and cell morphology dynamics. The main advantages offered by using cell-substrate impedance and cell morphology as a readout are that both exogenously expressed and endogenous receptors can be assayed without the need for engineering the cell with promiscuous G proteins and reporters or labeling the cells with dyes. In addition, since the readout is noninvasive, multiple stimulations with the same ligand or different ligands can be performed to assess events such as desensitization and receptor cross-talk. […]

T1 sequence (Q8WXD0 whole entry): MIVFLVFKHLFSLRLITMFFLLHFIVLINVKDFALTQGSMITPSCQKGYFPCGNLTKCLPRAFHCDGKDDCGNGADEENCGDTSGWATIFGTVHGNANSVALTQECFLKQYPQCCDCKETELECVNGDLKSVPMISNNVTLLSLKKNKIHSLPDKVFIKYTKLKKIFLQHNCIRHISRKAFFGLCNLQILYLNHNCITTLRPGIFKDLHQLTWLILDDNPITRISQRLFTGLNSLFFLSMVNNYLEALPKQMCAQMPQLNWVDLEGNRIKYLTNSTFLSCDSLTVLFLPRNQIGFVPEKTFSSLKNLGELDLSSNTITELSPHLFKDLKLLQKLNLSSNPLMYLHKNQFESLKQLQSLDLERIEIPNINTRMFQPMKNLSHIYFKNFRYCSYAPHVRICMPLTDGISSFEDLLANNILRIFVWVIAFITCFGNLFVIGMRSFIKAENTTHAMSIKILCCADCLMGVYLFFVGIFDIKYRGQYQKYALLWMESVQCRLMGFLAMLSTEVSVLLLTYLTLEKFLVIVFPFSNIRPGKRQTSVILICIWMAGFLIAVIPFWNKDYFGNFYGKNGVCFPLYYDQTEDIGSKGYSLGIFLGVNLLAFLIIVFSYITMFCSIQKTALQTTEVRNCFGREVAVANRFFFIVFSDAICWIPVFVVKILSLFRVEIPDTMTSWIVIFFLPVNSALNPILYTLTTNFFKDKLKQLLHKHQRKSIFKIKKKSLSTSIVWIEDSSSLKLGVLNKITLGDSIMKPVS

## GQKGQVGPPGAAVRRAYAAFSV [Peptide P59C13V]
LGR8 (RXFP2) [1]; FIG. 6B
  CRE activation relative to INSL3 activity: ~25 % of INSL3
LGR8 (RXFP2) [2]
  effect on cell impedance (normalized cell index): no significant effect as compared to BSA

## AYAAFSV-Amide (AYAAFSV-NH2) [Peptide P59-S-Amide]
LGR8 (RXFP2) [1]
  CRE activation pattern: less pronounced

## GQKGQVGPPGAAVRRAYAAFSV-Amide (GQKGQVGPPGAAVRRAYAAFSV-NH2) [P59C13V-Amide]
LGR8 (RXFP2) [1]
  CRE activation pattern: very weak effect

## GQKGQVGPPGAAVRRAYAAFSVGRRAYAAFSV-OH [Peptide P74C13V]
LGR8 (RXFP2) [1]
  CRE activation pattern: bell shaped response
LGR8 (RXFP2) [2]
  effect on cell impedance (normalized cell index): strong cellular effect

## H2 Relaxin: H2 Relaxin (ACS), positive control, known ligand of LGR7 (RXFP1) [reference compound]
LGR8 (RXFP2) [2]
  effect on cell impedance (normalized cell index): strong cellular effect
